Experimental data published in PMC5415311.

Target: adeno-associated virus (AAV)-DJ capsid protein
Assay: cryo-EM structure

## adeno-associated virus (AAV)-DJ capsid protein
  stoichiometry N: 60
